Experimental data reported in US20060104978A1, “Methods and compositions for PDGF-C activation and inhibition” (LUDWIG INSTITUTE FOR CANCER RESEARCH, priority 2003, published 2006).

Key:
[1] = molecular target: latent PDGF-DD (Homo sapiens, UniProt Q9GZP0); assay: In vitro cleavage of recombinant latent PDGF-DD with purified tPA; format: biochemical; set-up: Recombinant His6-tagged human PDGF-CC species and full-length PDGF-DD were expressed; made in house; details: 0.2-20 μg/ml tPA, 4 hours at 37° C., CNBr activated fibrinogen
Excerpt: (§1) A cotransfection assay was established to identify serine proteases able to cleave and activate latent PDGF-CC. Expression plasmids encoding the relevant enzymes and full-length PDGF-C were cotransfected into COS-1 cells, and aliquots of the conditioned media from the transfectants were subjected to SDS-PAGE and immunoblotting using antibodies to the growth factor domain of PDGF-C. […] As a specificity control, the ability of tPA and NT to use full-length PDGF-DD as the substrate in the cotransfection assay was analysed. […] One difference in the latter results, as compared with the results from the cotransfection assay, was that purified tPA generated a second intermediate species of 32 kDa using latent PDGF-CC as the substrate. It is possible that this intermediate is the result of digestion by plasmin contamination in the tPA preparation, since the size of the fragment is similar to that of plasmincleaved PDGF-CC previously reported (Li et al, 2000).
Recombinant latent PDGF-CC and PDGF-DD were digested with human tPA in 100 mM Tris-HCl pH 7.5, 0.1% Tween 20, and 0.1 mg/ml CNBr activated fibrinogen (Sigma) for 4 hours at 37° C. using 0.2-20 μg/ml tPA purified from human melanoma cells (T7776, Sigma). The digestions were analyzed by SDS-PAGE under reducing conditions and immunoblotted using affinity-purified antibodies against PDGF-C and PDGF-D, respectively (see above).

[2] = molecular target: latent PDGF-CC (Homo sapiens, UniProt Q9NRA1); assay: Cotransfection assay in COS-1 cells: protease plus full-length PDGF-C; format: cell-based; set-up: cotransfected with full-length PDGF-C (Li et al, 2000), full-length PDGF-D (Bergsten et al, 2001); expressed in transfected cells; host or cells: COS-1 cells; details: COS-1 conditioned medium, immunoblot, 22 kDa species under reducing conditions
Excerpt: as §1, with “2000). […]” for “2000).”
To test the endogenous expression of PDGF-CC, subconfluent AG1523 cells and primary fibroblast cultures were cultured in serum-free DMEM overnight. […] In the case of the primary cultures, total protein concentration was measured and normalized (Bradford, 1976). […]

[3] = test system: tPA-deficient fibroblasts; assay: WST-1 growth assay of primary fibroblasts in serum-free medium; format: cell-based, mouse; details: 50 ng/ml added to serum-free culture medium, 24 hours
Experimental: It was observed that primary fibroblasts derived from tPA-deficient mice grew more slowly in culture than fibroblasts derived from wild-type animals, raising the possibility that activation of latent PDGF-CC by tPA generated autocrine and paracrine growth stimulatory loops for primary fibroblasts in culture. To analyze this effect, isolated wild-type and tPA-deficient fibroblasts were serum-starved overnight, and the growth of the cells during the next 24 hours was monitored using an enzyme-based viability assay (see Example 8, Materials and Methods).
To monitor cell growth, both the cell proliferation reagent WST-1 (Roche) and BrdU (Sigma) were used. A total of 0.4×10^4 (WST-1) or 1×10^4 (BrdU) wild-type and tPA-deficient fibroblasts were seeded in triplicate-hexaplicate, and after attachment they were serum-starved overnight. Serum-starved cells were counted (WST-1 seeding control) and alternatively incubated for 24 hours in serum-free medium supplemented with 1 mg/ml BSA, and 50 μM BrdU in the BrdU experiment, in the absence or presence of 50 ng/ml activated PDGF-CC or tPA protein (#116, American Diagnostica Inc.). Upon counting, WST-1 reagent was added and measured according to the manufacturer's protocol using an ELISA reader. […] Quantification of the BrdU-positive cells was performed by counting all cells along the vertical and horizontal diameters of all wells.

Chain of latent PDGF-CC (Q9NRA1 23-345): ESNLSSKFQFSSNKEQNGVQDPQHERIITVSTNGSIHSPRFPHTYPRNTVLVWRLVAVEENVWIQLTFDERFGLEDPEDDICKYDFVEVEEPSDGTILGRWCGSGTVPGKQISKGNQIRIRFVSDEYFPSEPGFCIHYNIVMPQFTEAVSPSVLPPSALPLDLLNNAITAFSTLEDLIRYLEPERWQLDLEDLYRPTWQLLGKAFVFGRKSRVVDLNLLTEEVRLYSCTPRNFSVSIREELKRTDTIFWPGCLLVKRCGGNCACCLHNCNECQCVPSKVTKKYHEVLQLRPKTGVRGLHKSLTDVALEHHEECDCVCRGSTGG

For “tPA: tissue plasminogen activator, secreted serine protease; expressed, purified from human melanoma cells or recombinant”, the “cleavage of recombinant latent PDGF-DD by purified tPA” value [1] was “but not PDGF-DD, is a substrate for tPA”, the “cleavage of latent PDGF-CC by the coexpressed protease” value [2] was “released the growth factor domain of latent PDGFCC” and the “rescue of growth of tPA-deficient fibroblasts” value [3] was “allowed the cells to grow similar to the wild-type fibroblasts”.
